Measured values taken from US20260049148.

Target: internally quenched peptide probe (MCA)-Gly-Ser-Ala-Ile-Ala-Leu-Tyr-Gly-Gly-Ser-Lys (DNP)-D-Arg with CM AIALY (SEQ ID NO: 5)

B1: human recombinant MMP2 (R&D Systems, catalog No: 902-MP) (protein)
chain: YNFFPRKPKWDKNQITYRIIGYTPDLDPETVDDAFARAFQVWSDVTPLRFSRIHDGEADIMINFGRWEHGDGYPFDGKDGLLAHAFAPGTGVGGDSHFDDDELWTLGEGQVVRVKYGNADGEYCKFPFLFNGKEYNSCTDTGRSDGFLWCSTTYNFEKDGKYGFCPHEALFTMGGNAEGQPCKFPFRFQGTSYDSCTTEGRTDGYRWCGTTEDYDRDKKYGFCPETAMSTVGGNSEGAPCVFPFTFLGNKYESCTSAGRSDGKMWCATTANYDDDRKWGFCPDQGYSLFLVAAHEFGHAMGLEHSQDPGALMAPIYTYTKNFRLSQDDIKGIQELYGASPDIDLGTGPTPTLGPVTPEICKQDIVFDGIAQIRGEIFFFKDRFIWRTVTPRDKPMGPLLVATFWPELPEKIDAVYEAPQEEKAVFFAGNEYWIYSASTLERGYPKPLTSLGLPPDVQRVDAAFNWSKNKKTYIFAGDKFWRYNEVKKKMDPGFPKLIADAWNAIPDNLDAVVDLQGGGHSYFFKGAYYLKLENQSLKSVKFGSIKSDWLGC
- Probe Cleavage (kcat/KM): 39000 M⁻¹ s⁻¹
- Probe Cleavage (pM/s): 135 pM/s
